For 4 substances, Kd results are on record in article PMC10119177 (2023).

Usually Kd stands for the free concentration of one partner at which half of the binding sites on the other are occupied at equilibrium, for simple one-to-one binding.

The target in this assay is recombinant IgI3 domain of the S. pyogenes R28 protein (R28-IgI3), wildtype (S. pyogenes) (UniProt Q9XDB6). Briefly: ITC; iTC200, 25 °C, 16 injections of 2.42 µl, 30 mM Tris-HCl, 150 mM NaCl, pH 7.5, 750 rpm, in duplicate; 500 µM rCEACAM-N domains in the syringe, 50 µM rR28-IgI3 (methods). For orientation: In ITC the heat of successive injections is recorded.
On to “rCEACAM1-N N97A (from UniProt P13688 34-141) (domain or fragment)”, for which the Kd turned out to be 210 nM. On to “rCEACAM1-N Q44A (from UniProt P13688 34-141) (domain or fragment)”, for which the Kd came out at 920 nM.

Turning to “rCEACAM1-N Q89A (from UniProt P13688 34-141) (domain or fragment)”, the Kd was 687 nM. Consider “rCEACAM1-N V96A (from UniProt P13688 34-141) (domain or fragment)”, for which the Kd turned out to be 116 nM.
